Measured values reported in paper PMC9634612, “Rapid and efficient room-temperature serial synchrotron crystallography using the CFEL TapeDrive” (IUCrJ, 2022).

Molecular target: the molecule itself
Test: crystal structure; room-temperature (293 K) serial synchrotron crystallography with the CFEL TapeDrive, 2.3 Å, space group I222, one monomer in the asymmetric unit, tetramer generated by symmetry; UOX with 5PMUA bound

B1: Aspergillus flavus urate oxidase (enzyme)
chain: MSAVKAARYGKDNVRVYKVHKDEKTGVQTVYEMTVCVLLEGEIETSYTKADNSVIVATDSIKNTIYITAKQNPVTPPELFGSILGTHFIEKYNHIHAAHVNIVCHRWTRMDIDGKPHPHSFIRDSEEKRNVQVDVVEGKGIDIKSSLSGLTVLKSTNSQFWGFLRDEYTTLKETWDRILSTDVDATWQWKNFSGLQEVRSHVPKFDATWATAREVTLKTFAEDNSASVQATMYKMAEQILARQQLIETVEYSLPNKHYFEIDLSWHKGLQNTGKNAEVFAPQSDPNGLIKCTVGRSSLKSKL
notes: Urate oxidase of Aspergillus flavus, untagged, from a codon-optimized synthetic cDNA in pET24b; One monomer in the asymmetric unit; the tetramer is generated by crystal symmetry; also called UOX; cofactor-free A. flavus urate oxidase
B1 was tested, and the “stoichiometry N” value was 4.
